Source: patent US20090311278A1, “Novel teleost derived antimicrobial polypeptides” (THE UNIVERSITY OF GEORGIA RESEARCH FOUNDATION, published 2009)

T1: NCAMP-1 (histone H1X-like ODN binding protein), recombinant (Ictalurus punctatus)
T1 chain: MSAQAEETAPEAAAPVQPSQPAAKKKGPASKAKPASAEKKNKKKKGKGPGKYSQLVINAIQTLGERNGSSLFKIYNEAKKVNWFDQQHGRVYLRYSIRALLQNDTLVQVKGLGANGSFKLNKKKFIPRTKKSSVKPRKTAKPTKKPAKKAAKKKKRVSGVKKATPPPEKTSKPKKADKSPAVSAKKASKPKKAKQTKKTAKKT


Molecular target: T1, NCAMP-1 (histone H1X-like ODN binding …)
Assay: Southwestern blot
Details: tags: C-terminal 6xHis (pET-21b, E. coli); label: biotin (3')
Description: Biotinylated ODNs were used to identify potential. DNA binding proteins in NCC membrane lysate preparations and to evaluate the ODN binding of recombinant NCAMP-1. Membrane lysates were prepared as indicated above. Purified recombinant NCAMP-1 was mixed with SDS-PAGE sample buffer (reducing) prior to electrophoresis. […] Membranes were blocked in Superblock (Pierce, Rockford Ill.) blocking solution with 0.05% Tween-20. ODN's were diluted in Superblock and added to membranes (1 h, room temperature). Membranes were washed (3×) in TBS with 0.5% Tween-20 (TBST). Neutraviden-HRP (Pierce) diluted in Superblock (minimum dilution 1:50000) was added and incubated for 30 min at room temperature. Blots were washed (3×) in TBST and were developed with enhanced chemiluminiscence (SuperSignal® West Pico Pierce, Rockford, Ill.).

Binder	binding result
TCGTCGTTGTCGTTGTCGTT (ssDNA) [CpG ODN]	binds
TGCTGCTTGTGCTTGTGCTT (ssDNA) [GpC ODN]	binds
